The text below walks through data of article PMC8609364, “A Selective Tether Recruits Activated Response Regulator CheB to Its Chemoreceptor Substrate” (mBio, 2021).

In test [1] the test system is CheB methylesterase. To be noted: relative to phosphorylation; ref [8]; cited from earlier work. From the text: A high-activity form of the methylesterase/deamidase, designated CheB-P, is created by phosphorylation at a specific aspartyl residue in its N-terminal regulatory domain ([6][–][8]). However, activation is short-lived because of a high rate of autodephosphorylation ([7]), making it difficult to investigate binding of this activated form of the enzyme to chemoreceptors with confidence. Instead, we used a stable, functionally active mimic of phosphorylated CheB from Salmonella enterica subsp. enterica serovar Typhimurium (hereafter Salmonella) characterized by Saxl and coworkers ([26]). […] To investigate the role binding affinity might have in that activation, we measured binding of CheBC, a form of the methylesterase lacking the amino-terminal regulatory domain and linker, to pentapeptide-bearing and pentapeptide-lacking forms of Tar.

The target of test [2] is Tar4EΔpp-6H L378C, E. coli Tar lacking the carboxyl-terminal pentapeptide, all-glutamyl form, homodimer in … (E. coli, UniProt P07017 1-553, L378C, biotinylated at L378C). Put plainly: BLI; BLItz; biotinylated Tar homodimers in Nanodiscs held on an avidin sensor tip, CheB or CheBC in solution; 50 mM Tris-HCl pH 7.5, 10% glycerol, 5 mM MgCl2, 50 mM KCl, 2% BSA, 2 mM DTT; global fit, apparent rate constants, KD calculated from kon and koff. Conditions: both partners purified.

Test [3] addresses Tar4QΔpp-6H L378C, E. coli Tar lacking the carboxyl-terminal pentapeptide, all-glutaminyl form, homodimer in … (E. coli, UniProt P07017 1-553, L378C, biotinylated at L378C). Described as above. Conditions: both partners purified.

B1: CheBC, catalytic domain of E. coli CheB lacking the regulatory domain and linker (domain or fragment)
chain: LSSEKLIAIGASTGGTEAIRHVLQPLPLSSPALLITQHMPPGFTRSFADRLNKLCQIGVKEAEDGERVLPGHAYIAPGDRHMELSRSGANYQIKIHDGPAVNRHRPSVDVLFHSVAKQAGRNAVGVILTGMGNDGAAGMLAMRQAGAWTLAQNEASCVVFGMPREAINMGGVCEVVDLSQVSQQMLAKISAGQAIRI
In the case of B1, in test [1], the “activation by deletion of the regulatory domain” value is “not as effectively as by phosphorylation”.

B2: methylesterase/deamidase CheB from E. coli, low-activity, unphosphorylated form (enzyme, UniProt P07330 1-349, looked up)
chain: MSKIRVLSVDDSALMRQIMTEIINSHSDMEMVATAPDPLVARDLIKKFNPDVLTLDVEMPRMDGLDFLEKLMRLRPMPVVMVSSLTGKGSEVTLRALELGAIDFVTKPQLGIREGMLAYNEMIAEKVRTAAKASLAAHKPLSAPTTLKAGPLLSSEKLIAIGASTGGTEAIRHVLQPLPLSSPALLITQHMPPGFTRSFADRLNKLCQIGVKEAEDGERVLPGHAYIAPGDRHMELSRSGANYQIKIHDGPAVNRHRPSVDVLFHSVAKQAGRNAVGVILTGMGNDGAAGMLAMRQAGAWTLAQNEASCVVFGMPREAINMGGVCEVVDLSQVSQQMLAKISAGQAIRI
notes: CheB methylesterase/deamidase of E. coli, unphosphorylated, from plasmid pCW/cheB; measured with 2 mM DTT in the buffer; also called low-activity CheB; unmodified CheB; source: E. coli K-12 RP3098 with pCW/cheB, purified
Take B2: the Kd was 850 µM in test [2] and 590 µM in test [3].
